{
  "source": "patent US6307035",
  "about": "“BRCA1 associated polynucleotide (BAP-1) and uses therefor” (The Wistar Institute of Anatomy and Biology, dated 2001)",
  "key": {"full length BRCA1": {"biological_target": "full length BRCA1 (human, UniProt P38398)", "experiment": "GST pull-down, SDS-PAGE and fluorography"}, "[1]": {"biological_target": "GST (glutathione-S-transferase alone) (Schistosoma japonicum (Blood fluke), UniProt P08515 = GST)", "experiment": "GST pull-down, SDS-PAGE and fluorography"}},
  "data": [
    {"binder": "GST-hBAP1(483-594 of SEQ ID NO: 2) fusion protein lacking the minimal interaction domain (other) QPSPTPSNESTDTASEIGSAFNSPLRSPIRSANPTRPSSPVTSHISKVLFGEDDSLLRVDCIRYNRAVRDLGPVISTGLLHLAEDGVLSPLALTEGGKGSSPSIRPIQGSQG", "values": [
      {"measurement": "binding result", "setting": "full length BRCA1", "result": "no binding"}
    ]},
    {"binder": "LexA-BRCA1-RF fusion construct (amino-terminal 100 amino acids of human BRCA1, wild type, fused to the LexA DNA-binding domain) (other) MDLSALRVEEVQNVINAMQKILECPICLELIKEPVSTKCDHIFCKFCMLKLLNQKKGPSQCPLCKNDITKRSLQESTRFSQLVEELLKIICAFQLDTGLE", "values": [
      {"measurement": "binding result", "setting": "[1]", "result": "no binding"}
    ]}
  ]
}
